Assay results reported in US8242083B2, “Kinase substrates” (PerkinElmer Health Sciences, Inc., priority 2008, dated 2012).

Tests used:
Format in all cases: biochemical
Settings in all cases: Kinase Concentration 0.5 nM; 50 nM ULight-labeled substrate, 200 micromolar ATP, 2 hours
EphA6 = molecular target: T1, EphA6 (Homo sapiens, UniProt Q9UF33); test: TR-FRET kinase assay, EphA6
T1 sequence (Q9UF33 23-1036): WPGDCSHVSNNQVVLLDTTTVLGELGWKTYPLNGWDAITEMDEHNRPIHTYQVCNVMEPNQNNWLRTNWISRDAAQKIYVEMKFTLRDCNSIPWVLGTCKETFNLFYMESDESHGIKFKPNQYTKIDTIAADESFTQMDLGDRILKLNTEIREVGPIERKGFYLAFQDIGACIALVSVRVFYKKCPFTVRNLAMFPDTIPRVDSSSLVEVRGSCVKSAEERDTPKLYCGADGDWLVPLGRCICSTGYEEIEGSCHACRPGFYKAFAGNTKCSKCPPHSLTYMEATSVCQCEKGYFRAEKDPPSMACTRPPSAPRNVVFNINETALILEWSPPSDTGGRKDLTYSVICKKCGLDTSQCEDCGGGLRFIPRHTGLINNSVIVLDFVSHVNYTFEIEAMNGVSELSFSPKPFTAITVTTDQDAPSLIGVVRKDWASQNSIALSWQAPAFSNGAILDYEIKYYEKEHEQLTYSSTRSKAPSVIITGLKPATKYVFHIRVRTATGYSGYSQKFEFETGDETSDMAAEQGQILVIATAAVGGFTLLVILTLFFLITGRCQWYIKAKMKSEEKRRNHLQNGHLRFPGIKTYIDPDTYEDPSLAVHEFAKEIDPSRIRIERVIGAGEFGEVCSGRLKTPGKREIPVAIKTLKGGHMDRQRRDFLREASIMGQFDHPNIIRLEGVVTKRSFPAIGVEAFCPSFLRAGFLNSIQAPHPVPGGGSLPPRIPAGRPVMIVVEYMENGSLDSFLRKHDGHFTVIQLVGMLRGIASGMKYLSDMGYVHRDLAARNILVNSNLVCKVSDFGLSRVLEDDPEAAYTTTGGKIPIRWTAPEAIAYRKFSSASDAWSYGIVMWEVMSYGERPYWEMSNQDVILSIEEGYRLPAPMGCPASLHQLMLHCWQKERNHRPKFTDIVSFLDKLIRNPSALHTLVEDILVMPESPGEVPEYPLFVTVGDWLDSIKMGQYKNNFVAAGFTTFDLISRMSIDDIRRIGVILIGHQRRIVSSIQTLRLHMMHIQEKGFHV
Method: (§1) TR-FRET kinase assays are performed under standardized conditions: various individual kinases are incubated with 50 nM of kinase substrate BRB1 labeled with the TR-FRET acceptor dye ULight (PerkinElmer) and 200 micromolar ATP in 10 μL of kinase assay buffer (50 mM HEPES pH7.5, 10 mM MgCl2, 3 mM MnCl2, 1 mM EGTA, 2 mM DTT and 0.01% Tween-20) for 2 hours at room temperature. Reactions are stopped with EDTA, and anti-phospho-tyrosine antibodies (clone PT66) labeled with the TR-FRET europium chelate donor dye are added to a final concentration of 2 nM in a final volume of 20 μL. The TR-FRET signal emitted at 665 nm is read one hour after the addition of antibodies using a TR-FRET plate reader such as the Envision® Multilabel Plate reader (PerkinElmer). The emitted signal at 665 nm is proportional to the extent of peptide phosphorylation, Control reactions indicative of background are performed excluding ATP from the reaction.
(§2) Assay conditions are identical to those used described for FIG. 1.

FGFR1 = FGFR1 (Homo sapiens, UniProt P11362); test: TR-FRET kinase assay, FGFR1
FGFR1, sequence (P11362 22-822, species assumed): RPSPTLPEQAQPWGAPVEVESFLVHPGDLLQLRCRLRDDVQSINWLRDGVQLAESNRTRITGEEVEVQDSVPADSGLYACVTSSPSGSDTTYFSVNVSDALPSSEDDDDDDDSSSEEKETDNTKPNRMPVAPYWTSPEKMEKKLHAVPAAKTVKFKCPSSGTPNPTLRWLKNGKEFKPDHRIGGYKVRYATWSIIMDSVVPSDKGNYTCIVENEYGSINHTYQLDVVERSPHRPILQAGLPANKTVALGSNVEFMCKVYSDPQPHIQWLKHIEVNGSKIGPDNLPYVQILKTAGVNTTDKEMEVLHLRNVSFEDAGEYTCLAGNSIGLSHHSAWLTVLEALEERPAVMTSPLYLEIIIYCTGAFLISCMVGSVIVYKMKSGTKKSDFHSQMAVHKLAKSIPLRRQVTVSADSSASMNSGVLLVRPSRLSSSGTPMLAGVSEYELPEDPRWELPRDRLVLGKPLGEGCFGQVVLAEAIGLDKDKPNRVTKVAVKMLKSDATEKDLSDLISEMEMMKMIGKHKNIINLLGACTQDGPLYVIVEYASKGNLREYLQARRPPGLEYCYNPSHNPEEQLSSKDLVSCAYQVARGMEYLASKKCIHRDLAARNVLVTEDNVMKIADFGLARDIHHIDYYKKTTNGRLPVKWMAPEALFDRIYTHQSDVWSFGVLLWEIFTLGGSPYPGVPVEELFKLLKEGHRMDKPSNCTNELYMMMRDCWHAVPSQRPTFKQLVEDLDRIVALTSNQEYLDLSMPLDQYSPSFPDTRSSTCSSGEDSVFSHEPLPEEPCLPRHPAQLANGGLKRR
Method: as §1, §2

DDR2 = molecular target: T2, DDR2 (Homo sapiens, UniProt Q16832); test: TR-FRET kinase assay, DDR2
T2 sequence (Q16832 22-855): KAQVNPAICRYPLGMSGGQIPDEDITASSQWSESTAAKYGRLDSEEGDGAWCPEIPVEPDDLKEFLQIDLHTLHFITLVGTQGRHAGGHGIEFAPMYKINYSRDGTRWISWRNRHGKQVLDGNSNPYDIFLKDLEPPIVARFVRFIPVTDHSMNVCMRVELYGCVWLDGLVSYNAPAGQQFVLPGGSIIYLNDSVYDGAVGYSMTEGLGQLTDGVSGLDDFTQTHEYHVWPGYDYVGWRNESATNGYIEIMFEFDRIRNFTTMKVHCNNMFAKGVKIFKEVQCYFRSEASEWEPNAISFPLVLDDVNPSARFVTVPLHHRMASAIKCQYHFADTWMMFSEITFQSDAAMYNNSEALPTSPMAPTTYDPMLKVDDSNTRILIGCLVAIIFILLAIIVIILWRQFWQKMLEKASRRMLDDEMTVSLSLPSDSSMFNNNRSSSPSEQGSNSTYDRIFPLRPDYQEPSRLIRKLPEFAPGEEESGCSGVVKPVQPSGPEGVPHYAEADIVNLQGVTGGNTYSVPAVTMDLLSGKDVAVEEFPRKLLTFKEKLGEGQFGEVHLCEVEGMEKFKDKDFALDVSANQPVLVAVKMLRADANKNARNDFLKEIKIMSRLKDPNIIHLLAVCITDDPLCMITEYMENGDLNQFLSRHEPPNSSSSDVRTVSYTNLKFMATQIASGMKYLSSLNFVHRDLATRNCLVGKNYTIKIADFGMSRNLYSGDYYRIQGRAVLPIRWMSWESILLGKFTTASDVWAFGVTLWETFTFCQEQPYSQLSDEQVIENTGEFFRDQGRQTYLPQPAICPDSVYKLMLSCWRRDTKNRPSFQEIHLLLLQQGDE
Method: as §1, §2

With “C AYE AYE AYE K EYA EYA EYA K AYA EYE R (CAYEAYEAYEKEYAEYAEYAKAYAEYER; tyrosine kinase substrate peptide) [BRB1]” the “Signal to Noise ratio with BRB1 Peptide” value (EphA6) was 5.4, the “Signal to Noise ratio with BRB1 Peptide” value (FGFR1) was 26.4 and the “Signal to Noise ratio with BRB1 Peptide” value (DDR2) was 1.0.
